# Experimental data: patent US20120301930A1 (YEDA RESEARCH AND DEVELOPMENT, published 2012)
# T1: b-48A chimera (catalytic module of T. fusca exoglucanase Cel48A ligated with a dockerin from the Bacteroides …)
# T1 construct: Recombinant chimera; all enzyme constructs were designed to contain a His-tag; also called variant Cel48A
# T1 chain: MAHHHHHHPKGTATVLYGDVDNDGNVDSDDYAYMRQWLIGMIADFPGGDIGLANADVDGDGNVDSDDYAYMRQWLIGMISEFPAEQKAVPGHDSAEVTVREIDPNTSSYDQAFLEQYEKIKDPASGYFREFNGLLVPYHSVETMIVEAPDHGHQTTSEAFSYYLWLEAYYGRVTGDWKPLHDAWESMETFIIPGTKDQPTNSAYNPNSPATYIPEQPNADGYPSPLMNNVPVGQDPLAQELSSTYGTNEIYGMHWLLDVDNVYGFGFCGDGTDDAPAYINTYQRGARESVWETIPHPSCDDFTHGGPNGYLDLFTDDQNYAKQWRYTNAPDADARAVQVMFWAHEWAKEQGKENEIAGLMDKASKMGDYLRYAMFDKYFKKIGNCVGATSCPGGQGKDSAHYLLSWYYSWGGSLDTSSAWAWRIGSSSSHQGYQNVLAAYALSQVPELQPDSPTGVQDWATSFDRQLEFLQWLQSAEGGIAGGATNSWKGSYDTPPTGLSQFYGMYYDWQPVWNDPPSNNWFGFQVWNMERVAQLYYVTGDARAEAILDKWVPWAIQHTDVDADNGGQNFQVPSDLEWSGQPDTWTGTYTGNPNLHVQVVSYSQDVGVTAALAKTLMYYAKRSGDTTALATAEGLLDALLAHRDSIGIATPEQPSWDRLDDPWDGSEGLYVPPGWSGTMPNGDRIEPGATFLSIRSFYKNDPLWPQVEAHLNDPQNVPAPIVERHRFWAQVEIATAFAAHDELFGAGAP
# T2: f-5A chimera (catalytic module of T. fusca family-5 endoglucanase Cel5A fused to a dockerin from Ruminococcus …)
# T2 construct: Recombinant chimera expressed in E. coli; all enzyme constructs were designed to contain a His-tag; also called variant Cel5A
# T2 chain: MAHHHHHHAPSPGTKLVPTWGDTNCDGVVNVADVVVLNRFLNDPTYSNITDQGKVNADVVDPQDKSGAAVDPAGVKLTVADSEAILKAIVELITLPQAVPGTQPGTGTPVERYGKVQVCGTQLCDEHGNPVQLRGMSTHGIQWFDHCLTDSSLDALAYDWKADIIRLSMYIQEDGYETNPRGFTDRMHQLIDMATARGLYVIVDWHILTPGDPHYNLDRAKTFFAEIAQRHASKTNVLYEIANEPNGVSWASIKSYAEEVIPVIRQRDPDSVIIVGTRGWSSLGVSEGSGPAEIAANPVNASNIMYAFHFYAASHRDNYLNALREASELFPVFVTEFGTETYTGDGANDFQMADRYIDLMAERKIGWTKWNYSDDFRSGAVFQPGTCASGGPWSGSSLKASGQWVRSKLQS
# T3: Scaf-T single-cohesin scaffoldin (CBM with C. thermocellum cohesin) (Acetivibrio thermocellus (strain ATCC …, UniProt Q06851 361-706))
# T3 construct: Individual single-cohesin scaffoldin; also called pScaf.T
# T3 sequence: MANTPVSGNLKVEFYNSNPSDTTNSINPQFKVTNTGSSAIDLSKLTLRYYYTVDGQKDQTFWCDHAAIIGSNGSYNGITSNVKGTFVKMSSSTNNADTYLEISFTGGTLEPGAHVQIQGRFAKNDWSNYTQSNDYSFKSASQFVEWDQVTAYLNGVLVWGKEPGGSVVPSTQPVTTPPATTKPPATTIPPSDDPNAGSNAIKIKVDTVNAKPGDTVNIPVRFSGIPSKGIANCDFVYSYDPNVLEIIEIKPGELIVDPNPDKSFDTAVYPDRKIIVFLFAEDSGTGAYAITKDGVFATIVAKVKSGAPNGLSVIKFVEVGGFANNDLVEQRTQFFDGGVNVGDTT
# Key:
# [1] = target: T1, b-48A chimera (catalytic module of T. …); test: affinity-based ELISA
# [2] = target: T1, b-48A chimera (catalytic module of T. …); test: affinity-based ELISA; complex formation also by non-denaturing PAGE
# [3] = target: T2, f-5A chimera (catalytic module of T. …); test: as above
# [4] = target: T3, Scaf-T single-cohesin scaffoldin (CBM …); test: affinity-based ELISA
# [5] = target: T4, 11A-a chimera (catalytic module of T. fusca Xyn11A attached directly to dockerin B from Acetivibrio …); test: affinity-based ELISA
# T4 construct: Recombinant chimera expressed in E. coli, purified on a Ni column (His-tag)
# [6] = target: T5, 11A-XBM-a chimera (catalytic module of T. fusca Xyn11A together with its adjacent XBM attached to dockerin B …); test: affinity-based ELISA
# T5 construct: Recombinant chimera expressed in E. coli, purified on a Ni column (His-tag); also called variant Xyn11A
binder,measurement,setting,value
"Scaf-B single-cohesin scaffoldin (CBM with B. cellulosolvens cohesin) (other, Individual single-cohesin scaffoldin) MANTPVSGNLKVEFYNSNPSDTTNSINPQFKVTNTGSSAIDLSKLTLRYYYTVDGQKDQTFWCDHAAIIGSNGSYNGITSNVKGTFVKMSSSTNNADTYLEISFTGGTLEPGAHVQIQGRFAKNDWSNYTQSNDYSFKSASQFVEWDQVTAYLNGVLVWGKEPGGSVVPSTQPVTTPPATTKPPATTIPPSDDPNAGSGKSSPGNKMKIQIGDVKANQGDTVIVPITFNEVPVMGVNNCNFTLAYDKNIMEFISADAGDIVTLPMANYSYNMPSDGLVKFLYNDQAQGAMSIKEDGTFANVKFKIKQSAAFGKYSVGIKAIGSISALSNSKLIPIESIFKDGSITVTN",binding result,[1],binds
"Scaf-BF chimeric scaffoldin (cohesin from B. cellulosolvens ScaB, CBM3a from C. thermocellum, cohesin 1 from R. flavefaciens scaffoldin B) (other) MAGKSSPGNKMKIQIGDVKANQGDTVIVPITFNEVPVMGVNNCNFTLAYDKNIMEFISADAGDIVTLPMANYSYNMPSDGLVKFLYNDQAQGAMSIKEDGTFANVKFKIKQSAAFGKYSVGIKAIGSISALSNSKLIPIESIFKDGSITVTKVPTNTPTNTPANTPVSGNLKVEFYNSNPSDTTNSINPQFKVTNTGSSAIDLSKLTLRYYYTVDGQKDQTFWCDHAAIIGSNGSYNGITSNVKGTFVKMSSSTNNADTYLEISFTGGTLEPGAHVQIQGRFAKNDWSNYTQSNDYSFKSASQFVEWDQVTAYLNGVLVWGKEPGGSVVPSTQPVTTPPATTKPPATTIPPSEDPAGGLSAVQPNVSLGEVLDVSANRTAADGTVEWLIPTVTAAPGQTVTMPVVVKSSSLAVAGAQFKIQAATGVSYSSKTDGDAYGSGIVYNNSKYAFGQGAGRGIVAADDSVVLTLAYTVPADCAEGTYDVKWSDAFVSDTDGQNITSKVTLTDGAIIVHHHHHH",binding result,[2],binds
same,binding result,[3],binds
"10B-t chimera (catalytic module of T. fusca Xyn10B attached directly to dockerin S of Cel48S from Clostridium thermocellum) (enzyme, Recombinant chimera expressed in E. coli, purified on a Ni column (His-tag); also called variant Xyn10B) MASHHHHHHGPVHDHHPAPHSNAKSERLRWAAPDGFYIGSAVAGGGHHLEQDYPDPFTHDGKYRSILAQQFSSVSPENQMKWEYIHPEPDRYDFAMADKIVDFAERNDQKVRGHTLLWHSQNPEWLEEGDYSPEELREILRDHITTVVGRYAGRIHQWDVANEIFDEQGNLRTQENIWIRELGPGIIADAFRWAHEADPNAELFFNDYNVEGINPKSDAYYELIQELLDDGVPVHGFSVQGHLSTRYGFPGDLEQNLRRFDELGLATAITELDVRMDLPASGKPTPKQLEQQADYYQQALEACLAVEGCDSFTIWGFTDKYSWVPVFFPDEGAATIMTEKYERKPAFFALQQTLREARCADSPKPGPGKPKPGKGPKHDHCTSTYKVPGTPSTKLYGDVNDDGKVNSTDAVALKRYVLRSGISINTDNADLNEDGRVNSTDLGILKRYILKEIDTLPYKN",binding result,[4],binds
"Scaf-A single-cohesin scaffoldin (CBM with A. cellulolyticus cohesin) (other, Individual single-cohesin scaffoldin; also called pScaf-A) MANTPVSGNLKVEFYNSNPSDTTNSINPQFKVTNTGSSAIDLSKLTLRYYYTVDGQKDQTFWCDHAAIIGSNGSYNGITSNVKGTFVKMSSSTNNADTYLEISFTGGTLEPGAHVQIQGRFAKNDWSNYTQSNDYSFKSASQFVEWDQVTAYLNGVLVWGKEPGGSVVPSTQPVTTPPATTKPPATTIPPSDDPNAGSDLQVDIGSTSGKAGSVVSVPITFTNVPKSGIYALSFRTNFDPQKVTVASIDAGSLIENASDFTTYYNNENGFASMTFEAPVDRARIIDSDGVFATINFKVSDSAKVGELYNITTNSAYTSFYYSGTDEIKNVVYNDGKIEVIAS",binding result,[5],binds
same,binding result,[6],binds
